Test results reported in paper PMC8949286, “A New Strategy for As(V) Biosensing Based on the Inhibition of the Phosphatase Activity of the Arsenate Reductase from Thermus thermophilus” (International Journal of Molecular Sciences, 2022).

How the values were obtained:
[1] = target: T1, TtArsC (Thermus thermophilus, UniProt Q72HI5); test: biochemical
T1 construct: gene TT_C1502; recombinant, pET30/TtarsC in E. coli BL21-CodonPlus(DE3)-RIL; thermo-precipitation, anion exchange (Resource Q), gel filtration (Superdex S75); no tag mentioned
T1 sequence (Q72HI5 1-150): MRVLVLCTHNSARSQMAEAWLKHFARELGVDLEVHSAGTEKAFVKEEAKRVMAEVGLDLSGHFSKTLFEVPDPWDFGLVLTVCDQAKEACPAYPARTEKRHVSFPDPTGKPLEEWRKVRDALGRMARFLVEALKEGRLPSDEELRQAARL

[2] = substrate: O=[N+]([O-])c1ccc(OP(=O)(O)O)cc1; test: purified protein; format: biochemical, Thermus thermophilus; conditions: no inhibitor, 4 µM enzyme, 20 mM Tris-HCl pH 7, 60 °C

## O=[As]O [As(III)]
[1]
  Ki: 394 ± 40.3 µM

B1: TtArsC (Thermus thermophilus HB27) (protein)
chain: MRVLVLCTHNSARSQMAEAWLKHFARELGVDLEVHSAGTEKAFVKEEAKRVMAEVGLDLSGHFSKTLFEVPDPWDFGLVLTVCDQAKEACPAYPARTEKRHVSFPDPTGKPLEEWRKVRDALGRMARFLVEALKEGRLPSDEELRQAARL
notes: recombinant, pET30/TtarsC in E. coli BL21-CodonPlus(DE3)-RIL; thermo-precipitation, anion exchange (Resource Q), gel filtration (Superdex S75); no tag mentioned
[2]
  Km: 9.57 ± 1.95 mM
  Vmax: 0.0193 µmol/min/mg
  kcat: 0.005 s⁻¹
